Experimental data: the supplement of paper PMC10567573
± gives the standard deviation.

Experiment: protein stability index of a GFP-peptide fusion (GPS, HEK-293T) (PSI 1-6); higher = more stable
[1] = treatment: DMSO, c terminus: a fixed tail appended
[2] = treatment: MLN4924 1 uM, 8 h, c terminus: a fixed tail appended
[3] = treatment: DMSO, c terminus: native
[4] = treatment: MLN4924 1 uM, 8 h, c terminus: native
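Further: 24-mer peptide tiles fused after GFP, lentivirally expressed, FACS-sorted into six equal bins by GFP/DsRed ratio, decoded by Illumina sequencing, PSI is the read-weighted mean bin number.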

Sequence | protein stability index [1] | protein stability index [2] | protein stability index [3] | protein stability index [4]
ELEPLKGNFDWEAIFDAGTLGGEL [FOXJ1] | 4.2 ± 0.39 | 4.05 ± 0.46 |  | 
ELGSESQGASESQAPGEENLLGEA [HDAC6] | 5.63 ± 0.29 | 5.54 ± 0.12 |  | 
ELHQVAERVEALGQFVMKTRRTLK [GNB5] | 2.87 ± 0.12 | 3.1 ± 0.3 |  | 
ELIRVEVEILDLNDNSPSFATPER [PCDHGC5] | 2.42 ± 0.26 | 2.43 ± 0.25 |  | 
ELTLSKTDLEMQIESLNEELAYMK [KRT13] | 3.66 ± 0.15 | 3.66 ± 0.35 |  | 
ELVPKQPQKRKPQEQLLECNKLCG [SLC2A12] | 3.44 ± 0.45 | 4.18 ± 0.18 |  | 
ELYVFGGVRSREDAQGSEMVTCKS [GAN] | 4.08 ± 0.38 | 4.15 ± 0.34 |  | 
ENLAHHLEIDSGVITLDPQTASRS [TRIM15] | 4.96 ± 0.11 | 4.97 ± 0.27 |  | 
ENPETDLHVNPKKQTIGNSCKACG [EIF5] | 4.44 ± 0.39 | 4.66 ± 1.2 |  | 
ENRALQQLLEQKQAYWAQAEDTAA [CBY2] | 4.3 ± 0.21 | 4.4 ± 0.21 |  | 
ENSHTNTEVLRNMGFAAKAMKSVH [CHMP4C] | 3.61 ± 0.28 | 3.77 ± 0.23 |  | 
ENTLLNSQMVSTDNSLSSQNYISQ [MIA2] | 4.05 ± 0.23 | 4.03 ± 0.17 |  | 
EPAGGGRSREARSRLLLLEQELKT [SMAD6] | 4.63 ± 0.44 | 4.87 ± 0.088 |  | 
EPEPAEVTSTSQSPHSPDSSQSSL [DDIT3] | 5.48 ± 0.15 | 5.58 ± 0.13 |  | 
EPGPRPALQPSPSIRLPLDAPLPG [TBC1D10A] | 4.97 ± 0.28 | 5.06 ± 0.26 |  | 
EPKLHTPMYFFLGNLSVLDVGCIS [OR3A1] | 2.7 ± 0.83 | 2.95 ± 0.71 |  | 
EPNTFSPANVDASVMYRKWKESKG [CDC34] | 4.69 ± 0.15 | 4.59 ± 0.17 |  | 
EQATSLAILRVIRLVRVFRIFKLS [KCNA1] | 2.42 ± 0.63 | 2.7 ± 0.26 |  | 
EQHGKKVPTVSRPYSFIEFDTFIQ [SEC22B] | 2.75 ± 0.28 | 2.95 ± 0.26 |  | 
EQLLVLVEWAKYIPAFCELPLDDQ [HNF4A] | 2.57 ± 0.78 | 2.46 ± 0.42 |  | 
ERAIRTQPKQLIVDDLKGSLKEDL [SPRY1] | 4.81 ± 0.28 | 4.85 ± 0.18 |  | 
ERLVAQFPSSGRFWKLYIEAEVTI [CSTF3] | 2.93 ± 0.61 | 2.71 ± 0.38 |  | 
ERMAEEGGGGQGDGGSSLASGSTQ [FBXO28] | 5.53 ± 0.35 | 5.35 ± 0.33 |  | 

Sequence | protein stability index [1] | protein stability index [2] | protein stability index [3] | protein stability index [4]
ESAFKLSTGTSRWPSAKSAGWTLA [SCNN1D] | 2.46 ± 0.21 | 3.03 ± 0.17 |  | 
ESFIKAIGVGLGFELQRLEFDLSP [AASDHPPT] | 2.89 ± 0.77 | 2.84 ± 0.64 |  | 
ESHSCPQQVPMPPGQEAQRVVCGI [NEK8] | 4.15 ± 0.28 | 4.15 ± 0.12 |  | 
ETAAGKGKGEARARLKRSQSFGVA [SMTNL2] | 4.39 ± 0.18 | 4.71 ± 0.12 |  | 
ETHRAPDLVQWTRHMEAVKAQLLE [SOAT2] | 4.81 ± 0.21 | 4.53 ± 0.29 |  | 
ETLSITNCRLSEGDVMHLSQSPSV [PRAME] | 3.2 ± 0.66 | 3.22 ± 0.77 |  | 
ETYLQNHFAEEERSKYDYLMILRR [TENT5C] | 2.84 ± 0.1 | 3.13 ± 0.23 |  | 
EVHRLIEGKAPIISGVTKAISSPT [TPPP] | 3.42 ± 0.18 | 3.84 ± 0.28 |  | 
EVPTAAGALTPTPAPTTTTATREE [CLPTM1] | 5.42 ± 0.27 | 5.44 ± 0.39 |  | 
EVRKLTQRLEEMTQRMEALENRLR [MATN2] | 2.57 ± 0.39 | 2.91 ± 0.4 |  | 
EVSSPPDTTEEVDHKPKLCRLAKG [PDZK1] | 5.11 ± 0.45 |  |  | 
EYVEKETQEKKRLSRTNEELLWKL [MTUS2] | 4.04 ± 0.25 | 4.17 ± 0.22 |  | 
FAPQTGARPSETFARFCKSQESAL [DNAAF3] | 2.5 ± 0.45 | 2.76 ± 0.52 |  | 
FARYPNGVVVHYFCSKEVNPADT [VPS39] |  |  | 2.4 ± 0.22 | 2.27 ± 0.18
FCYCAGSHKRKRSSGSFCYCHPDS [GMCL1] | 2.56 ± 0.73 | 3.19 ± 0.61 |  | 
FDQLKQFLTFDKQVLRFYAIWDDT [EFHC1] | 2.31 ± 0.2 | 2.13 ± 0.33 |  | 
FEAYAKICDPGLTSFEPEALGNLV [CAMK2B] | 2.71 ± 0.37 | 2.76 ± 0.32 |  | 
FEFLYNALEFWRQEELTRINQSFT [IQUB] | 2.13 ± 0.54 | 2.45 ± 0.74 |  | 
FFKGIDQDIERGVQSEIFLHESYC [LYSMD4] | 2.58 ± 0.27 | 2.35 ± 0.19 |  | 
FFLFIGVILFSSAVYFAEAEEAES [KCNA1] | 2.81 ± 0.18 | 2.78 ± 0.34 |  | 
FFVITMIKIVLINSFGAILQGSLF [SLC29A1] | 3.36 ± 0.093 | 2.99 ± 0.12 |  | 
FHNLVSLNLNYNCISDELLENLCE [FBXO39] | 2.6 ± 0.18 | 2.66 ± 0.3 |  | 
FKLFFNGRPGIVAWTLINLSFAAK [DHCR7] | 3.03 ± 0.28 | 2.46 ± 0.31 |  | 

Sequence | protein stability index [1] | protein stability index [2] | protein stability index [3] | protein stability index [4]
FLDILRRADKNDDGKLSFEEFKAY [NECAB1] | 2.83 ± 0.23 | 2.93 ± 0.34 |  | 
FLENLDKSRKGELLKKSDLQKDF [PRIM1] |  |  | 4.7 ± 0.24 | 5.154 ± 0.05
FLMRKCGWFVRELRVEFAAENYLS [FBXO33] | 3.06 ± 0.59 | 2.8 ± 0.35 |  | 
FLQQSLERVYSLQHLDPQGAQELL [INTS4] | 1.91 ± 0.42 | 2.76 ± 0.54 |  | 
FPREHQFFEDGDVQRHLYLQDVIM [ZNF511] | 2.45 ± 0.085 | 2.78 ± 0.28 |  | 
FQKGQVTRDGFKLVMASLYHIYVA [HMOX1] | 2.83 ± 0.49 | 3.12 ± 0.97 |  | 
FQTLQAIVSHFQKLFDVPSLNGVY [CEP70] | 2.36 ± 0.36 | 2.36 ± 0.4 |  | 
FRDPIWSTWALYGRAVDQDKVLRF [MYORG] | 2.12 ± 0.39 | 2.11 ± 0.15 |  | 
FSDSSLIEDSQALHKRPKLDSEYY [LURAP1L] | 3.86 ± 0.35 | 3.9 ± 0.21 |  | 
FSPAKPKPSKELKPLLGSAVLGLL [MYORG] | 2.15 ± 0.53 | 2.21 ± 0.17 |  | 
FSPDGPSRFRKAYKPEQPLVRLRG [LOXL2] | 2.5 ± 0.58 | 3.39 ± 0.68 |  | 
FTDFNATSALFWEQHDLVYGDWTS [CLPTM1] | 2.29 ± 0.67 | 2.53 ± 0.27 |  | 
FTRKTLAEKKQELDKLRNEWASHT [SASS6] | 3.15 ± 0.47 | 3.77 ± 0.6 |  | 
FVERVRKRGFEVVYMTEPIDEYCV [HSP90AB1] |  | 2.53 ± 0.26 |  | 
FVLLCFAIGALLVCYHYYADWFMS [TMEM40] | 2.16 ± 0.31 | 2.19 ± 0.39 |  | 
FVSKIRAVINDIANLPVPTIAAID [AUH] | 2.42 ± 1.6 | 2.04 ± 0.54 |  | 
GAAGRSQEPEVPCAAVLPGKPGDR [RSPH3] | 5.31 ± 0.29 | 5.31 ± 0.2 |  | 
GAGLLSSISELKHALSGHAKVKPF [TPH1] | 2.86 ± 0.095 | 3.02 ± 0.12 |  | 
GALQIEQSEESDQGKYECVATNSA [PTPRD] | 5.18 ± 0.097 | 5.39 ± 0.31 |  | 
GDRLNVEVDAAPPVDLNKILEDMR [KRT36] | 4.24 ± 0.4 | 4.323 ± 0.035 |  | 
GEEQTQNPYTELLVLKAHHDIVRF [WDR41] | 2.51 ± 0.32 | 2.79 ± 0.3 |  | 
GEHKDRIERQWGNLLGEGQHKCDE [ZSCAN9] | 4.88 ± 0.4 | 4.93 ± 0.14 |  | 
GEVEEEADSCFGDDEDDSGTEES [CDC34] |  |  | 5.25 ± 0.37 | 5.29 ± 0.15

Sequence | protein stability index [1] | protein stability index [2] | protein stability index [3] | protein stability index [4]
GFRYSERYDPEPKSKWDEEWDKNK [CLINT1] | 3.73 ± 0.24 | 3.78 ± 0.29 |  | 
GFYFEVCGMMVESVNAKTLMSRI [PCDHGA10] |  |  | 2.81 ± 0.26 | 2.41 ± 1
GGGDEDGSLGSRAEPAPRAREGGG [SMAD6] | 5.55 ± 0.17 | 5.51 ± 0.4 |  | 
GGGMRVCGFGGGAGSVFGGGFGGG [KRT15] | 2.03 ± 0.33 | 1.94 ± 0.24 |  | 
GGKGHHLPSENLGKEPLDPDPSHS [TOR1AIP2] | 5.456 ± 0.051 | 5.15 ± 0.14 |  | 
GGPGGPGSDKQQQQQHIECVVCGD [NR2F2] | 5.02 ± 0.21 | 5.02 ± 0.45 |  | 
GGSSTSERCLLNNSLWKKNKTICK [NLN] | 3.44 ± 0.16 | 3.47 ± 0.33 |  | 
GGVCCTVTLNFNVPGEFKQDVTVV [GFOD1] | 2.94 ± 0.25 | 2.99 ± 0.16 |  | 
GHGEPDVLKDELQLYGDAPGEVVP [TMEM40] | 5.36 ± 0.07 | 5.35 ± 0.23 |  | 
GHQPGTGPGDGPPEIAQNFSAPDP [SMTNL2] | 5.23 ± 0.098 | 5.46 ± 0.15 |  | 
GHSPARAGKQRMKEKEQENERKVA [DDIT3] | 5.39 ± 0.4 | 5.43 ± 0.37 |  | 
GHVEMVNLLLAKGANINAFDKKDR [ANKRD44] | 3.41 ± 0.19 | 3.38 ± 0.3 |  | 
GIAILVGSNDRVQGVISQLEDTCK [TRIM55] | 2.3 ± 0.15 | 2.43 ± 0.37 |  | 
GIELMEVDPIGHLYIFATCLGLSY [MAGEA3] | 2.72 ± 0.9 | 2.85 ± 1.2 |  | 
GIGHKVDAVFMKDGFFYFFHGTRQ [MMP1] | 2.4 ± 0.94 | 2.13 ± 0.23 |  | 
GIHLALVELLKNLTKYPTDRDSIW [INTS4] | 2.77 ± 0.72 | 2.75 ± 1 |  | 
GILTFLAVLGRYVPGLLLSYLMLV [RETREG3] | 3.42 ± 0.28 | 2.95 ± 0.72 |  | 
GIPNAIISVEGINHDIRTANDGDY [CPXM2] | 4.55 ± 0.2 | 4.71 ± 0.16 |  | 
GKAVVSHSKGHKSSRQEKRPLCAQ [ELOA2] | 4.61 ± 0.29 | 4.64 ± 0.44 |  | 
GKELAGTMDGEGTLFQTESPQSGS [PBXIP1] | 5.42 ± 0.43 | 5.38 ± 0.17 |  | 
